Test results published in patent publication US20090282582A1, “ENVIRONMENTAL STRESS RESPONSIVE PROMOTER AND METHOD OF TISSUE-SPECIFIC GENE EXPRESSION USING THE SAME” (RIKEN, priority 2006, published 2009).

Tests used:
[1] = system: Arabidopsis thaliana (columbia ecotype) plant body; assay: full-length cDNA microarray analysis of gene expression levels after environmental stress application; conditions: in vivo
Experimental: In this example, the gene expression levels at the time of application of various types of environmental stresses were analyzed using microarrays. Specifically, the microarrays described in Seki et al., “Monitoring the expression profiles of 7000 Arabidopsis genes under drought, cold, and high-salinity stresses using a full-length cDNA microarray,” Plant J. 31: 279-292, 2002, were used, and analysis was carried out in accordance with the method similar to the method described therein. Various types of environmental stresses were applied to a plant body under the following conditions. Specifically, low-temperature stress application was carried out by introducing a plate containing a plant body into a low-temperature chamber (4° C.). Dehydration stress application was carried out by capturing the plant body with forceps while refraining from damaging the plant body, roughly removing moisture from the plant body on a Kim Towel, placing the plant body on another plate, placing the plate in a clean bench while leaving the lid open, letting it stand for 2 hours, and then closing the lid. Salt stress application was carried out by dispensing a mixture of MS medium (containing 1% sucrose, 0.1% agar, and 1 mM luciferin) with 250 mM NaCl to the roots of the plant bodies (200 μl per plant body) using a Pipetman. ABA stress application was carried out by dispensing a mixture of MS medium (containing 1% sucrose, 0.1% agar, and 1 mM luciferin) with 100 μM ABA to the roots of the plant bodies (200 μl per plant body) using a Pipetman. As a plant body to which environmental stress is to be applied, Arabidopsis thaliana (columbia ecotype), which had been cultivated on a germination medium containing Murashige and Skoog Salt, 3% sucrose, and […] for 3 weeks, was used. Cultivation conditions were determined so as to maintain the temperature in the chamber at 22° C. with a 16-hour light period and an 8-hour dark period. Total RNA was extracted from plant bodies after environmental stress application or from plant bodies to which no environmental stress had been applied using the TRIZOL Reagent (Life Technologies), and mRNA was extracted using the mRNA isolation kit (Militenyi Biotec Auburn). In accordance with the method described in the above article, mRNA samples were reversely transcribed in the presence of Cy3 dUTP or Cy5 dUTP (Amersham Pharmacia). Microarray analysis was carried out using cDNAs obtained via reverse transcription. Data obtained via microarray analysis were analyzed using the Quantarray Version 2.0 (GSI Lumonics).

[2] = system: transgenic Arabidopsis thaliana plant body (luciferase reporter gene); assay: luciferase assay of promoter::LUC transgenic plants after environmental stress application; assay type: in vivo; conditions: for Tissue in which specific induction of expression is realized / time after stress application at which activity to induce gene expression is exhibited: Dehydration stress; for time after stress application at which activity to induce gene expression is lowered: dehydration stress, stem and leaf tissue; for Tissue allowing specific induction: summary over stress types
Experimental: Specifically, promoter regions were isolated from these genes, transgenic plants in which luciferase reporter genes were to be expressed under the control of such promoters were prepared, and tissue specificity of the promoters was inspected via luciferase assay.
In this example, DNA fragments containing promoter regions of the genes identified in Example 1 were recovered via PCR.
The nucleotide sequences of the amplified DNA fragments were determined in accordance with a conventional technique to confirm that mutagenesis, such as substitution or deletion, was not introduced thereinto. After the absence of mutagenesis was confirmed, the recovered DNA fragments were introduced into the vector for promoter analysis (i.e., a vector prepared by introducing the Gateway recombinant sequence (tradename: Gateway Vector Conversion System, Invitrogen) and the luciferase reporter gene into the pGreen vector (Plant Molecular Biology 42: 819-832, 2000)) using the Gateway recombination system to construct a recombinant vector.
The recombinant vector prepared in (1) above was introduced into a plant via Agrobacterium infection. When a gene is introduced via Agrobacterium infection, a process of infecting a plant with Agrobacterium containing a plasmid comprising the target gene construct is necessary. This process was carried out via vacuum infiltration. Specifically, a plant body of Arabidopsis thaliana that had been grown in soil comprising vermiculite and an equivalent amount of pearlite was soaked in a culture solution of Agrobacterium containing the recombinant vector prepared in (1). The resultant was placed in a desiccator, suctioned with a vacuum pump to 65 to 70 mmHg, and then allowed to stand at room temperature for 5 to 10 minutes. The pot was transferred onto a tray, covered with a wrap, and kept moistened. The wrap was removed on the following day, the plant was allowed to grow in that state, and seeds were then harvested.
Subsequently, seeds were sown on MS agar medium to which antibiotic hygromycin has been added in order to select an individual having the recombinant vector prepared in (1). Arabidopsis thaliana that had been grown in this medium was transferred to a pot and allowed to grow therein. Thus, seeds of transgenic plants to which the recombinant vector prepared in (1) has been introduced were obtained.
The seeds of the transgenic plant lineage prepared in (2) were sowed on MS agar medium. The plant body 10 days after sowing was used for luciferase assay.
At the outset, 1 mM luciferin (containing 0.01% Triton-X) was sprayed over the entire plant body 5 times. After the plant body was allowed to stand in the dark for 5 minutes, luciferase luminescence was assayed using ARGUS (assay after treatment for 0 hours). Subsequently, various types of environmental stresses were applied (see below). Low-temperature stress application was carried out by introducing a plate containing a plant body into a low-temperature chamber (4° C.). Dehydration stress application was carried out by capturing the plant body with forceps while refraining from damaging the plant body, roughly removing moisture from the plant body on a Kim Towel, placing the plant body on another plate, placing the plate in a clean bench while leaving the lid open, letting it stand for 2 hours, and then closing the lid. Salt stress application was carried out by dispensing a mixture of MS medium (containing 1% sucrose, 0.1% agar, and 1 mM luciferin) with 250 mM NaCl to the roots of the plant bodies (200 μl per plant body) using a Pipetman. ABA stress application was carried out by dispensing a mixture of MS medium (containing 1% sucrose, 0.1% agar, and 1 mM luciferin) with 100 μM ABA to the roots of the plant bodies (200 μl per plant body) using a Pipetman.
Luciferase luminescence was assayed 2, 5, and 10 hours after the above various types of environmental stresses had been applied using the ARGUS system (Hamamatsu Photonics). […]

Molecule | Environmental stress type to which the promoter responds [1] | Tissue in which specific induction of expression is realized [2] | time after stress application at which activity to induce gene expression is exhibited [2] | Tissue in which specific induction of expression is realized ([2]; listed as promoter of RAFL06-16-J10) | time after stress application at which activity to induce gene expression is lowered [2] | Tissue allowing specific induction [2] | Tissue in which specific induction of expression is realized ([2]; listed as promoter of RAFL07-08-I12)
Promoter of RAFL06-16-J10: environmental stress responsive promoter DNA, SEQ ID NO: 5, upstream of At2g06050 (OPR3 gene) (nucleic acid, listed as Arabidopsis thaliana) DNA: CCTGGGACTTGGGCTGAGAATAATGAAGTGGCTGGGAAATGATTAGTTAAGGATGGCTTGATGAATTCTCAATATTCTGTTGAGGGAACAAAATATACTAGGAAGGATGCAAGTCCAGTTTGGTCTAAACCATTGTACGAACCAAAAACAATCAATAAAGTAACTCAGGGCTCACAAATGGTCGATAATATTTCTAAAGTTTCAGTTCTAGAGGATGAGCAAAAGGATTTGATGATGGGAGATGTACTAGAGGTACAAGACAAGAGTCTCACTGAAGGGTTGAATTTCAGATATTTTAAATCACGTTTGGAGTAACAAAAAACAAATGTGAGAAGGAGCTCAATTAGCTCCAACTGAATCTAGTGTTATTAGGGATACTTTGGAAACTCCAATTCAATCTTTAAGATGTAGGATTGATGAATTCATGGAAATCGGCAGATCCATCTATGAATTTAGTATGGTGGTGTTTCCTAGGAATTGACAATACAATTTTACTTGGTGCAAAGTGTCTTCGGAGGTGTCCCTTTCTTTTTCACTCGGAATTGGAAGTTTTAATATTGGCAATAAAAAATATCCTTTCAAGAAGGATAAAGTGTCAGGCATTTGAAACAGATAATTATTCAGAGTAAGTTTTGATGGTACAGTCCCCTGAAGAATGACTCGCTTTCTCTAATTTTTTAGAAGATCTTGAATTGCTATGTGTCTCCTTTTCTTGCTTTCTTCTATTTCATGTTTATGTAATACTAAGGCAAACTATTTAGCACAATATTCTAAACTTTTATTTTCTGAAGTTATTTTTTAAACCCTTTCCCTCCTAATTGGACAACCAATCATGGAATTAGTTTTTACGTAATGTTTTAAACTCACTATTTCACCTTTATTCTGACCTGTTAATGGAAGACAACTATGACTTTATACATTGAAATGTTGTCAACCTGTTATATATTAATGTTAACATAGCTAATGACCTATCAATGTACGTAAAGCGAATGTCAATCATATTCGTATCCGTTAATTTCATTTAGGAAATCAGGCTCATTGCCAATCCACTAAGAAACATCTCTGATAGATCCAAATAATAAAAATAATATAATATGAAGCAAAATAGAACGAAATATCTCACGCGGACCAAACTTTGAACTTTATTATAAAACAAATCAGCACGTGAAAGTAATGGTCGGTTCGGTCCAAGATGCCAAGAACTCCTCCGGTCCATCCATCAACCTAACCTTTTTTGGATATAAAATTTAGCAAATTCCATTTCCACGACCACACAACAACAACACATCCACTCGAATTTTCTATTTCCGAATAACAAAACCGGTAAACTCATCACAAACTTAAGTTACTTTGTAGTTTGTGTTTTGTCCTTTTATGTAATGAAGAAGATCCAACTAACTACTACTCAATATTTTTGTATTGACCGTTGATTTCTCAGATCTGACTTTTACTTCTCCTTCTTCCAGATCGGCGGAGAC | Dehydration and salt | Stem and leaf tissue | about 2 hours | stem and leaf tissue | about 10 hours | Stem and leaf tissue | –
Promoter of RAFL07-08-I12: environmental stress responsive promoter DNA, SEQ ID NO: 6, upstream of At2g26530 (homolog of calmodulin-binding protein) (nucleic acid, listed as Arabidopsis thaliana) DNA: CGGGTTTTATTTTGGAATTGGGTTATATGGTGGATGTATTTGAATCAATATTTATAAAAATTTAACAATTATCTCATGGATTCGTGGTATAACGTTACCTAATAACAATTATAAACTGTAAAATAAAAATATTTTATAAAAATAAAATTTGCAAGTTTTAATATATATTACTTTTAAAAAATAAATCGTCCCGCGGTATACCGCGGGTTAAAATCTAGTCTATGTTTATTATAAAAGAATACAATGTATTAATGTATAAATTATCTTATGCATGAGCACGATGATCATCTAGTAGTATACATCTTACCCGTCGACAAAAACAAAATGTTCCTTATCCAGTATCTAGATGGATCGTGTGAACTCAATTCTACGTAGAACACAAAAGTCCTCTCGTTTGGTCACTGAATTAATTTGAACGATATTATTTATTAGGACCACCGGTTAAATTGGCCTCGTGGTCTAAATATGCCTTCGAATGGTCCAACAACCATGTGGTCAATGCCGACTATGAAAATGACTGAAAATTCAAAACATGTAAGTGGGTTACCACCACTTATCATTATGTTCCAAATCGTTTGCATTAAACAACTTTATTTCGACACATGCGGTCTGAAAAGGCGGCCAATTAATTTACGTTAATCATCGTTTACTATTATTATCTTCGGAATATTTCCAACACAATCAATCTAGTTGGTTCCAATTCTCATCACATATTTTATTTTATAGTTTAAAGTCTTTCAATTCAGTAGTCTAACTGTATAACATATGACTTCGAACAGATTGATATAGACCACTCAATCTAATAATATCGTTTTAGCTACGAAGAGTATACAAAAAAAGCTAGTTGGATAGTTTAAAAATTAAATGCTAGAAGAATGTTGGATATATCAAACAATAAAATTAATATTTAGAGAGAAAATATCGTAATAGAGTTTTTTCTATAAATAAATTTTTGAGTTAAAAAATATTATTAGCCTGACCAAACTCTTTTTATTTCTTTAAACTATGACAGTAAGATCTAAATTTTAATAAACCAATGTTTATTTAATATTTTCAGAAATGGGCTAAAAATGACTAGTTGTTGTATGTGTTTCCTTTGAATAAAAGCTCAACAAACAAAAACTAGAAGTCATTATGTAAAAAAACTAATGACATAGTATTAGGTATTTTTTGCAAATTATTCACACATGTTGCCAAAAGTTGTTTTTTATATTATATGTTTGGTCAGCGAAAACGGTTTAAAGCACTCTCTCTTTCCTCTCGCCTTCCTTTGATGATCCTTTTTAGTTCCCTTCTTCTCATTGCTCTTGAGACCATCTCCGAACTCAAAGGAAACTAGAAACA | Dehydration and salt | Stem and leaf tissue | about 2 hours | – | about 5 hours | Stem and leaf tissue | stem and leaf tissue
